Laboratory results published in the supplement of paper PMC7877785.
± gives the uncertainty stated by the source.

Assay: self-splicing fitness, log relative to wild type (ln ratio); higher = more splicing; Tetrahymena group I intron in knt gene, E. coli kanamycin selection, DiMSum; sequences stand for … in CUCUCU…GGAGGGAAAAGUUAUCAGGCAUGCACCUGGUAGCUAGUCUUUAAACCAAUAGAUUGCAUCGGUUUAAAAGGCAAGACCGUCAAAUUGCGGGAAAGGGGUCAACAGCCGUUCAGUACCAAGUCUCAGGGGAAACUUUGAGAUGGCCUUGCAAAGGGUAUGGUAAUAAGCUGACGGACAUGGUCCUAACCACGCAGCCAAGUCCUAAGUCAACAGAUCUUCUGUUGAUAUGGAUGCAGUUCACAGACUAAAUGUCGGUCGGGGAAGAUGUAUUCUUCUCAUAAGAUAUAGUCGGACCUCUCCUUAAUGGGAGCUAGCGGAUGAAGUGAUGCAACACUGGAGCCGCUGGGAACUAAUUUGUAUGCGAAAGUAUAUUGAUUAGUUUUGGAGUACUCGUGGUCG
Outline: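 Pooled colonies went to amplicon sequencing on an Illumina HiSeq 2500 after six replicate transformations. The plates were LB agar with 100 μg/mL carbenicillin, 50 μM IPTG and 0.2% rhamnose, with or without 25 μg/mL kanamycin, incubated overnight at 37°C or 30°C. The E. coli BL21(DE3) library had all eight P1ex-region intron nucleotides randomised, the intron placed in the knt kanamycin-resistance gene on pET-22b(+). DiMSum fitness is the error-weighted combination of replicate fold changes, kanamycin against none, normalised to wild type.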

Sequence | self-splicing fitness (ln) (30 °C) | self-splicing fitness (ln) (37 °C)
AACCAGCAAUAUUACGCAAC | -2.78 ± 0.13 | -0.698 ± 0.11
CAUAAGCAAUAUUACGGUUG | -2.47 ± 0.094 | -1.59 ± 0.1
ACGGAGCAAUAUUACGCGGG | -2.3 ± 0.18 | -0.332 ± 0.15
GGCUAGCAAUAUUACGCUCA | -2.07 ± 0.33 | -0.183 ± 0.25
UCCCAGCAAUAUUACGAAUU | -3.04 ± 0.19 | -2.27 ± 0.17
UGGGAGCAAUAUUACGCCUU | -2.66 ± 0.26 | -1.66 ± 0.31
UAAUAGCAAUAUUACGGAGU | -4.07 ± 0.27 | -2.82 ± 0.22
GUCUAGCAAUAUUACGUGAA | -0.302 ± 0.1 | 0.449 ± 0.097
GAAGAGCAAUAUUACGUCAA | -3.04 ± 0.27 | -2.16 ± 0.22
UAACAGCAAUAUUACGUAAU | -3.27 ± 0.14 | -2.23 ± 0.14
GAGUAGCAAUAUUACGAAAA | -2.8 ± 0.38 | 
GAGUAGCAAUAUUACGUAGG | -3.9 ± 0.24 | -1.81 ± 0.17
CCCCAGCAAUAUUACGGCAA | -3.17 ± 0.15 | -3.06 ± 0.2
GUGAAGCAAUAUUACGUCUU | -1.6 ± 0.067 | -0.642 ± 0.078
ACGCAGCAAUAUUACGACCU | 0.0699 ± 0.061 | 0.401 ± 0.073
GGUGAGCAAUAUUACGUGCU | -1.66 ± 0.18 | -1.74 ± 0.37
CUUGAGCAAUAUUACGUGAU | -4.13 ± 0.21 | -1.96 ± 0.15
UAAUAGCAAUAUUACGGCUA | 0.00533 ± 0.088 | 0.527 ± 0.094
GCAGAGCAAUAUUACGAUCG |  | -1.33 ± 0.34

Sequence | self-splicing fitness (ln) (30 °C) | self-splicing fitness (ln) (37 °C)
CUUGAGCAAUAUUACGCAAU | -3.44 ± 0.32 | -2.77 ± 0.38
UGGUAGCAAUAUUACGCGCC | -1.45 ± 0.3 | -2.02 ± 0.42
GUAGAGCAAUAUUACGAUAU | -0.731 ± 0.088 | 0.237 ± 0.12
GUGCAGCAAUAUUACGGGCG | -1.82 ± 0.092 | -0.512 ± 0.11
GUUUAGCAAUAUUACGUGCC | -2.91 ± 0.36 | 
AGUGAGCAAUAUUACGGCGC | -0.869 ± 0.35 | -0.599 ± 0.2
UCCAAGCAAUAUUACGCUAC | -3.8 ± 0.27 | -2.48 ± 0.24
ACGUAGCAAUAUUACGCUUA | -1.49 ± 0.11 | -0.764 ± 0.12
AACUAGCAAUAUUACGGAGC | -1.86 ± 0.15 | -0.604 ± 0.15
CACAAGCAAUAUUACGUUCC | -3.75 ± 0.19 | -2.42 ± 0.23
AGUAAGCAAUAUUACGAUCA | 0.197 ± 0.16 | -0.44 ± 0.15
UCAUAGCAAUAUUACGAUUU | -3.45 ± 0.22 | -2.24 ± 0.22
UUAUAGCAAUAUUACGGCUG | 0.0456 ± 0.07 | 0.442 ± 0.1
GUACAGCAAUAUUACGGUAC | -4.08 ± 0.43 | -2.8 ± 0.26
UCAUAGCAAUAUUACGGUAA | -2.44 ± 0.27 | -0.618 ± 0.15
CAUUAGCAAUAUUACGGUCG | -0.452 ± 0.14 | 0.576 ± 0.14
ACCCAGCAAUAUUACGGCCA | -1.17 ± 0.075 | -0.171 ± 0.09
AAACAGCAAUAUUACGUAGG | -1.85 ± 0.057 | -1.34 ± 0.08
CCAAAGCAAUAUUACGCUGA | -4.48 ± 0.36 | -2.75 ± 0.19
